Data as given in patent US7632650B2, “Diagnostics and therapeutic uses of topors” (University of Medicine and Dentistry of New Jersey, priority 2002, dated 2009).

T1: IkBα (Homo sapiens, UniProt P25963)
T1 sequence (P25963 1-317): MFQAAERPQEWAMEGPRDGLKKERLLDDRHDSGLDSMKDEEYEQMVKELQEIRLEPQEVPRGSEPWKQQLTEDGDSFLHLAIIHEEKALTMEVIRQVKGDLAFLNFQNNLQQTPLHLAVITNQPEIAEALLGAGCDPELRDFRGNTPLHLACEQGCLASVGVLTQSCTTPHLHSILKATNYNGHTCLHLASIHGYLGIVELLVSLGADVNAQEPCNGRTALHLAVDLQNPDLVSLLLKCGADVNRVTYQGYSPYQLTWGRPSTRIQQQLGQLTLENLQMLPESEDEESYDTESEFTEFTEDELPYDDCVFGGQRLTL

T2: top1 (Homo sapiens, UniProt P11387)
T2 sequence (P11387 1-765): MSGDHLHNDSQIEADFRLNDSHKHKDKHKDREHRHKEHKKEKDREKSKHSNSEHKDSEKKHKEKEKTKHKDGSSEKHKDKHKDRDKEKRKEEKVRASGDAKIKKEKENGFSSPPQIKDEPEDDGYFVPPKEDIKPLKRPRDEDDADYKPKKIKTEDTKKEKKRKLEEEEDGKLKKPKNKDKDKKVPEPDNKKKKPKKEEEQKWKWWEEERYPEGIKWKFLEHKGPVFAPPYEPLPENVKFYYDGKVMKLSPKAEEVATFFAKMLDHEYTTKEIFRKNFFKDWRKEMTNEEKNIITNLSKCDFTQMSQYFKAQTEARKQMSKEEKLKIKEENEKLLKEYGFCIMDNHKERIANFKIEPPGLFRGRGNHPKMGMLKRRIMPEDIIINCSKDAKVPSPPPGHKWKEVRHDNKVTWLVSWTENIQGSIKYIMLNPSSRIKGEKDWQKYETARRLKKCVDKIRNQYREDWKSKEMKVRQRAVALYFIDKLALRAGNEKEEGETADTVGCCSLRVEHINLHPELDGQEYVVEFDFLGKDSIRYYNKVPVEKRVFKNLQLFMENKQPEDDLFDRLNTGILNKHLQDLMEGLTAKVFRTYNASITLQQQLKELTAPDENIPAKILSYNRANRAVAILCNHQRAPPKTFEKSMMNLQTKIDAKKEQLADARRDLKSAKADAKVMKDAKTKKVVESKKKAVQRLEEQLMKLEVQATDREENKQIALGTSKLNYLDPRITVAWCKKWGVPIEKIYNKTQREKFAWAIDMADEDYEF

B1: topors: RING protein that binds topoisomerase 1 and p53; dual E3 ubiquitin/SUMO ligase (protein)
chain: MGSQPPLGSPLSREEGEAPPPAPASEGRRRSRRVRLRGSCRHRPSFLGCRELAASAPARPAPASSEIMASAAKEFKMDNFSPKAGTSKLQQTVPADASPDSKCPICLDRFDNVSYLDRCLHKFCFRCVQEWSKNKAECPLCKQPFDSIFHSVRAEDDFKEYVLRPSYNGSFVTPDRRFRYRTTLTRERNASVYSPSGPVNRRTTTPPDSGVLFEGLGISTRPRDVEIPQFMRQIAVRRPTTADERSLRKIQEQDIINFRRTLYRAGARVRNIEDGGRYRDISAEFFRRNPACLHRLVPWLKRELTVLFGAHGSLVNIVQHIIMSNVTRYDLESQAFVSDLRPFLLNRTEHFIHEFISFARSPFNMAAFDQHANYDCPAPSYEEGSHSDSSVITISPDEAETQELDINVATVSQAPWDDETPGPSYSSSEQVHVTMSSLLNTSDSSDEELVTGGATSQIQGVQTNDDLNNDSDDSSDNCVIVGFVKPLAERTPELVELSSDSEDLGSYEKMETVKTQEQEQSYSSGDSDVSRCSSPHSVLGKDEQINKGHCDSSTRIKSKKEEKRSTSLSSPRNLNSSVRGDRVYSPYNHRHRKRGRSRSSDSRSQSRSGHDQKNHRKHHGKKRMKSKRSRSRESSRPRGRRDKKRSRTRDSSWSRRSQTLSLSSESTSRSRSRSSDHGKRRSRSRNRDRYYLRNNYGSRYKWEYTYYSRNKDRDGYESSYRRRTLSRAHYSRQSSSPEFRVQSFSERTNARKKNNHSERKYYYYERHRSRSLSSNRSRTASTGTDRVRNEKPGGKRKYKTRHLEGTNEVAQPSREFASKAKDSHYQKSSSKLDGNYKNESDTFSDSRSSDRETKHKRRKRKTRSLSVEIVYEGKATDTTKHHKKKKKKHKKKHKKHHGDNASRSPVVITIDSDSDKDSEVKEDTECDNSGPQDPLQNEFLAPSLEPFETKDVVTIEAEFGVLDKECDIATLSNNLNNANKTVDNIPPLAASVEQTLDVREESTFVSDLENQPSNIVSLQTEPSRQLPSPRTSLMSVCLGRDCDMS

Key:
[1] = tested on: HeLa cells expressing GFP-topors or GFP-PML; assay: imaging of GFP-topors or GFP-PML in nuclear bodies before and after treatment; format: cell-based, human; conditions: 10 μM, thirty minutes
Protocol: Acute promyelocytic leukemia, a type of cancer affecting the blood, is characterized by an abnormal block in the development of stem cells. It has now been discovered that topors localizes in nuclear bodies associated with promyelocytic leukemia (PML) oncogenic domains. In these experiments HeLa cells were immunostained with antibodies recognizing both topors and PML. Separate and merged fluorescent images from a representative cell were analyzed. PML nuclear bodies are nuclear depot sites, which are disrupted in cells from patients with promyelocytic leukemia with t (15;17) . Topors relocalized to the nucleoplasm after DNA damage. […] In these experiments, HeLa cells expressing GFP-topors or GFP-PML were imaged before and after treatment with 0.1% DMSO, 10 μM DRB, 10 μM CPT, or 30 μM cycloheximide for thirty minutes.

[2] = molecular target: T1, IkBα; assay: in vitro sumoylation of IkBα; format: biochemical; conditions: E1 and Ubc9
Protocol: (§1) Reaction products were analyzed using monoclonal anti-p53 and polyclonal anti-IkBα antibodies.

[3] = molecular target: T2, top1; assay: in vitro top1 sumoylation with purified components; format: biochemical; conditions: purified sumo conjugation components, purified top1 and topors
Protocol: Topors is homologous in the RING domain to proteins implicated in conjugation of ubiquitin and SUMO, such as MDM2 and BRCA1. Previously, it has been shown that topors binds to the N-terminus of top1. […] Topors also redistributes from PML (promyelocytic leukemia) nuclear bodies to a diffuse nuclear localization when exposed to CPT. When incubated with a HeLa cell fraction containing SAE1/SAE2, purified SUMO-1, and purified Ubc9, minimal top1-SUMO conjugates could be detected using Top1 and SUMO antibodies.
Using purified components of the sumo conjugation system as well as purified top1 and topors, top1-SUMO conjugates were detected. Removing any of the sumoylation components or topors abrogated top1 sumoylation.

[4] = tested on: ubiquitin; assay: in vitro ubiquitination reaction with E1, E2 proteins and ubiquitin; format: biochemical; conditions: 400 ng E1, 200 ng E2, 3 μg ubiquitin, ~100 ng GST-topors or GST
Protocol: This analysis was carried out using reactions containing 400 ng E1, 200 ng of various E2 proteins, 3 μg of ubiquitin, and either ˜100 ng GST-topors or GST. Reaction products were resolved by SDS-PAGE under reducing conditions. Migration of probable poly-ubiquitin chains was determined. All E2s were active as assessed by thiolester formation.

[5] = tested on: mammalian cells; assay: SUMO-2 conjugate formation in cells; format: cell-based
From the text: Additionally, it was shown that topors functions as an E3-type ubiquitin ligase an E3-type SUMO ligase for topoisomerase and p53. Thus, topors is a dual function ubiquitin and SUMO ligase. Recombinant topors enhances formation of polyubiquitin conjugates by specific E2 ubiquitin enzymes in vitro, with the RING domain necessary and sufficient for this activity. While topors-induced ubiquitination of bacterially expressed top1 was unable to be detected in vitro, similar assays using Ubc9, SAE1/SAE2, and SUMO-1 indicate that topors stimulates formation of top1-SUMO-1 conjugates by Ubc9. […] Instead, this activity maps to the 536-704 region, which contains a nuclear localization sequence and is within the top1-binding region. Ectopic expression of topors in HeLa cells increases formation of SUMO-2 conjugates.
as §1

[6] = molecular target: p53 (Homo sapiens, UniProt P04637); assay: in vitro sumoylation of p53; format: biochemical; conditions: E1 and Ubc9
Protocol: as §1

[7] = tested on: cervical cancer cell line; assay: overexpression of topors in cancer cell line; format: cell-based
From the text: The topors protein was not detected in lysates from several different tumor cell lines. In this regard, in matched normal and tumor human tissue specimens, the topors protein was detectable only in normal tissues (FIGS. 3 and 4).

p53, sequence (P04637 whole entry, species assumed): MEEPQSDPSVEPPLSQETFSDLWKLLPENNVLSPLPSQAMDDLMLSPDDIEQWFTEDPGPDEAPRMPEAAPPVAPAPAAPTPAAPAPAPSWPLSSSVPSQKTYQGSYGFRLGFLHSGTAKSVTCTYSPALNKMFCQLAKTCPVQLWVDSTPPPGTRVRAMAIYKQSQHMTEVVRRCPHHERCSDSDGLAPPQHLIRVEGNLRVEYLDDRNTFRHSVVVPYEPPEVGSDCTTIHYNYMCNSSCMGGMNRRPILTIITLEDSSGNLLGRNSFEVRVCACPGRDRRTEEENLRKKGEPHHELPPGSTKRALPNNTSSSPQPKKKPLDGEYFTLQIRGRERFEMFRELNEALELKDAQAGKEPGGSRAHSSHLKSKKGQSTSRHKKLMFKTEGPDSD

| Molecule | dispersion of topors / PML from nuclear bodies [1] | sumoylation of IkBα [2] | top1 sumoylation in vitro [3] | E3 ubiquitin ligase function (poly-ubiquitin chains) [4] | SUMO-2 conjugates [5] | sumoylation of p53 [6] | effect of overexpression on cancer cells [7] |
| --- | --- | --- | --- | --- | --- | --- | --- |
| CC[C@@]1(O)C(=O)OCc2c1cc1n(c2=O)Cc2cc3ccccc3nc2-1 [CPT, camptothecin] | induce rapid dispersion of topors but not PML from nuclear bodies |  |  |  |  |  |  |
| OC[C@H]1O[C@@H](n2cnc3cc(Cl)c(Cl)cc32)[C@H](O)[C@@H]1O [DRB] | induce rapid dispersion of topors but not PML from nuclear bodies |  |  |  |  |  |  |
| B1 |  | not IkBα | enhances top1 sumoylation in vitro | functions as an E3 ubiquitin ligase | increases SUMO-2 conjugates | activates sumoylation of p53 | cell death |
